According to patent US20250304700A1, “ANTI-BLOOD DENDRITIC CELL ANTIGEN 2 ANTIBODIES AND USES THEREOF” (Biogen MA Inc., priority 2012, published 2025):

How the values were obtained:
human BDCA2 ectodomain = molecular target: T1, human BDCA2 ectodomain (Homo sapiens, UniProt Q8WTT0); experiment: Octet binding of mAbs on anti-human Fc tips to monomeric huBDCA2
T1 construct: huBDCA2 ectodomain: residues 257-425 above (underlined); murine IgG2a Fc (with G4S linker) (N, cleaved yes); made in house
T1 sequence (Q8WTT0 45-213): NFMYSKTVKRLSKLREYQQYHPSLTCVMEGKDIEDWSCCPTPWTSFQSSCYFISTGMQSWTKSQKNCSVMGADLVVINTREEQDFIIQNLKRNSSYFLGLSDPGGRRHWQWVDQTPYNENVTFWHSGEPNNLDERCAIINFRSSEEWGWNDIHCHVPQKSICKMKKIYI
Method: Site-directed mutagenesis was performed using Agilent's QuikChange II mutagenesis kit following the manufacturer's recommended protocol. The C95S variant was constructed using the mutagenic primer 5′ GCAACCTATTACTGTCAACAAAGTAATGAGGATCCTCGGAC 3′ (SEQ ID NO: 38) and its reverse complement, which introduced a new HincII site, producing plasmid pEAG2678. The C95T variant was constructed using the mutagenic primer 5′ CAACCTATTACTGTCAGCAAACTAATGAAGATCCTCGGACGTTCG 3′ (SEQ ID NO: 39) and its reverse complement, which removed a BamHI site, producing plasmid pEAG2679. Mutated plasmids were identified by screening for the introduced restriction site changes. The full-length light chain cDNA sequences in the resultant plasmids were confirmed by DNA sequencing. Wildtype ch24F4 and the C95S and C95T variant mAbs were expressed transiently in 293E cells by co-transfection of pYL672 and pYL671, pEAG2678 or pEAG2679. Conditioned medium was harvested at 2 days post-transfection. Titers (assayed by Octet on anti-human Fc tips) of both variants were similar to that of wildtype ch24F4, and Western blots of nonreducing SDS-PAGE indicated no gross aggregation or obvious clipping relative to wildtype ch24F4 mAb. […] Conditioned medium containing ch24F4 and the C95 variant mAbs was assayed by Octet for binding to human BDCA2 ectodomain. Antibodies from conditioned medium from transiently transfected cells were bound to anti-human Fc tips, then monomeric huBDCA2 was flowed over the Octet tips, to examine binding and dissociation.
Conditioned medium containing ch24F4 and all hu24F4 variant mAbs was assayed by Octet for binding to human BDCA2 ectodomain. The monomeric huBDCA2 ectodomain was prepared by proteolytic cleavage from the purified muIgG2a Fc-huBDCA2 fusion protein (relevant plasmid: pEAG2423). Antibodies from conditioned medium from transiently transfected cells were bound to anti-human Fc tips, and then monomeric huBDCA2 was flowed over the Octet tips, to examine binding and dissociation.
To explore the possibility of enhancing hu24F4 affinity by substitution at the position of the 24F4 version L1 CDR L3 unpaired cysteine (C95S in hu24F4 light chain expression vector pYL740), a number of version L1 variants were constructed by site-directed mutagenesis. Backmutation to the unpaired cysteine, i.e., S95C, was constructed by site-directed mutagenesis producing plasmid pYL749. Variants S95T, S95A, and S95V were constructed by site-directed mutagenesis producing plasmids pYL750, pYL751, and pYL752, respectively. The full-length light chain cDNA sequences in the resultant plasmids were confirmed by DNA sequencing. C95 variant hu24F4 mAbs were expressed transiently in 293E cells by co-transfection of hu24F4 H4 heavy chain pYL746 or hu24F4 H5 heavy chain pYL747 with hu24F4 L1 variant light chains C95S pYL740, S95C pYL749, S95T pYL750, S95A pYL751 or S95V pYL752 plasmids. Conditioned medium was harvested at 2 days post-transfection. Titers (assayed by Octet on anti-human Fc tips) of all variants were similar, and Western blots of nonreducing SDS-PAGE indicated no gross aggregation or obvious clipping. Conditioned medium containing the C95 variant mAbs was assayed by Octet for binding to human BDCA2 ectodomain. Antibodies from conditioned medium from transiently transfected cells were bound to anti-human Fc tips, then monomeric huBDCA2 was flowed over the Octet tips, to examine binding and dissociation. C95A variants had the slowest off-rates.

[1] = test system: TLR9-induced IFNα production in whole blood; experiment: Whole blood assay, TLR9-induced IFNα production; type: cell-based, human; conditions: CpG-A stimulated whole blood
Method: Whole blood was drawn from heparinized venous blood of healthy donors. […] CpG-A was added at 200 μg/mL, which was determined to be optimal for stimulation of IFNα production in whole blood. Plates were incubated for 18 hours at 37° C. and supernatants collected for use in IFNα ELISA assays (PBL InterferonSource). The assays were performed according to the manufacturer's protocol. Shown in FIG. 15A is a representative experiment of 6 independent experiments performed.
Specifically, whole blood from 2 SLE patients or 2 healthy donors was provided by Bioreclamation LLC by overnight shipping. […] Plates were incubated for 18 hours at 37° C. and supernatants collected for use in IFNα ELISA assays (PBL InterferonSource). The assays were performed according to the manufacturer's protocol.
CpG-A was added at 75 μg/mL (open square), which was determined to be optimal for stimulation of IFNα production in whole blood. Plates were incubated for 18 hours at 37° C. and supernatants collected for use in IFNα ELISA assays (PBL InterferonSource).
The whole blood was then collected, lysed, and BDCA2 expression was assessed by flow cytometry using the FITC-conjugated non-cross blocking antibody 2D6. […] The supernatants were harvested and evaluated for IFNα by ELISA.

[2] = test system: CD62L on the surface of human pDCs; experiment: CD62L surface expression on pDCs by flow cytometry; type: cell-based; conditions: whole blood, 1 hour at 37° C., no stimulation
Method: The MFI of CD62L was determined by gating on pDCs as defined by CD14−, CD20−, HLA-DR+ and CD123+.
Metalloproteinase are known to induce CD62L shedding from the surface of immune cells. […] The surface expression of CD62L was assayed by flow cytometry. GM6001 inhibited the BIIB059-mediated down-modulation CD62L in a dose dependent manner (FIG. 45).

[3] = Example 5, conditioned medium, hu24F4 variants
[4] = Example 6, conditioned medium, L1 position 95 variants

| kdis (human BDCA2 ectodomain; [3]) [s⁻¹] | kon (human BDCA2 ectodomain; [3]) [M⁻¹ s⁻¹] | kdis (human BDCA2 ectodomain; [4]) [s⁻¹] | kon (human BDCA2 ectodomain; [4]) [M⁻¹ s⁻¹] | Substance | other cytokines and chemokines in whole blood [1] | CD62L expression on the surface of pDCs [2] |
| --- | --- | --- | --- | --- | --- | --- |
| 0.000408 | 549000 | 0.000398 | 727000 | 24F4S: hu24F4 H4/L1 with C95S light chain; differs from BIIB059 by 1 amino acid residue |  |  |
|  |  |  |  | BIIB059: humanized IgG1 anti-BDCA2 antibody, mature heavy chain SEQ ID NO: 4 and mature light chain SEQ ID NO: 3 | inhibition of a large array of cytokines and chemokines | dose-dependent decrease |
